Data set [1] deals with HeLa Kyoto. The experiment in a line: solubility change mitosis vs G1/S (difference of NP-40 vs SDS log2 ratios) (log2 ratio difference); higher = more soluble in mitosis.
For data set [2], the system named is HeLa Kyoto. The experiment in a line: thermal stability score vs G1/S (z-score of summed log2 fold changes over temperatures); higher = more thermally stable than in G1/S.
Data set [3] relates to HeLa Kyoto. The experiment in a line: melting temperature (median over replicates), in situ; higher = more thermally stable.
Data set [4] concerns HeLa Kyoto. Briefly: solubility in G1/S (NP-40 vs SDS abundance) (log2 ratio); higher = more soluble. The note with it: cell cycle stage: G1/S.
The mark [5] stands for this setting: cell cycle stage: early G1 (4.5 h after nocodazole release).

The values below come from the supplement of paper PMC5998384.
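For melting temperature (median over replicates), in situ in this document: HeLa Kyoto cells synchronized by double thymidine or nocodazole block, proteins quantified by TMT10plex mass spectrometry, three independent biological replicates.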
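For solubility change mitosis vs G1/S (difference of NP-40 vs SDS log2 ratios) in this document: synchronized HeLa Kyoto cells (double thymidine block for G1/S, nocodazole release for mitosis), protein amounts in NP-40 versus SDS lysates quantified by mass spectrometry, three biological replicates.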
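For solubility in G1/S (NP-40 vs SDS abundance) in this document: HeLa Kyoto cells arrested at G1/S by double thymidine block, proteins quantified by TMT10plex mass spectrometry in mild NP-40 versus SDS extracts, three biological replicates.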
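For thermal stability score vs G1/S (z-score of summed log2 fold changes over temperatures) in this document: synchronized HeLa Kyoto cells, proteins quantified by TMT10plex mass spectrometry, three biological replicates, mitosis taken 0.5 h after nocodazole release, G1/S directly after double thymidine block.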

Sequence of PRRC2A (chain, as listed by the source): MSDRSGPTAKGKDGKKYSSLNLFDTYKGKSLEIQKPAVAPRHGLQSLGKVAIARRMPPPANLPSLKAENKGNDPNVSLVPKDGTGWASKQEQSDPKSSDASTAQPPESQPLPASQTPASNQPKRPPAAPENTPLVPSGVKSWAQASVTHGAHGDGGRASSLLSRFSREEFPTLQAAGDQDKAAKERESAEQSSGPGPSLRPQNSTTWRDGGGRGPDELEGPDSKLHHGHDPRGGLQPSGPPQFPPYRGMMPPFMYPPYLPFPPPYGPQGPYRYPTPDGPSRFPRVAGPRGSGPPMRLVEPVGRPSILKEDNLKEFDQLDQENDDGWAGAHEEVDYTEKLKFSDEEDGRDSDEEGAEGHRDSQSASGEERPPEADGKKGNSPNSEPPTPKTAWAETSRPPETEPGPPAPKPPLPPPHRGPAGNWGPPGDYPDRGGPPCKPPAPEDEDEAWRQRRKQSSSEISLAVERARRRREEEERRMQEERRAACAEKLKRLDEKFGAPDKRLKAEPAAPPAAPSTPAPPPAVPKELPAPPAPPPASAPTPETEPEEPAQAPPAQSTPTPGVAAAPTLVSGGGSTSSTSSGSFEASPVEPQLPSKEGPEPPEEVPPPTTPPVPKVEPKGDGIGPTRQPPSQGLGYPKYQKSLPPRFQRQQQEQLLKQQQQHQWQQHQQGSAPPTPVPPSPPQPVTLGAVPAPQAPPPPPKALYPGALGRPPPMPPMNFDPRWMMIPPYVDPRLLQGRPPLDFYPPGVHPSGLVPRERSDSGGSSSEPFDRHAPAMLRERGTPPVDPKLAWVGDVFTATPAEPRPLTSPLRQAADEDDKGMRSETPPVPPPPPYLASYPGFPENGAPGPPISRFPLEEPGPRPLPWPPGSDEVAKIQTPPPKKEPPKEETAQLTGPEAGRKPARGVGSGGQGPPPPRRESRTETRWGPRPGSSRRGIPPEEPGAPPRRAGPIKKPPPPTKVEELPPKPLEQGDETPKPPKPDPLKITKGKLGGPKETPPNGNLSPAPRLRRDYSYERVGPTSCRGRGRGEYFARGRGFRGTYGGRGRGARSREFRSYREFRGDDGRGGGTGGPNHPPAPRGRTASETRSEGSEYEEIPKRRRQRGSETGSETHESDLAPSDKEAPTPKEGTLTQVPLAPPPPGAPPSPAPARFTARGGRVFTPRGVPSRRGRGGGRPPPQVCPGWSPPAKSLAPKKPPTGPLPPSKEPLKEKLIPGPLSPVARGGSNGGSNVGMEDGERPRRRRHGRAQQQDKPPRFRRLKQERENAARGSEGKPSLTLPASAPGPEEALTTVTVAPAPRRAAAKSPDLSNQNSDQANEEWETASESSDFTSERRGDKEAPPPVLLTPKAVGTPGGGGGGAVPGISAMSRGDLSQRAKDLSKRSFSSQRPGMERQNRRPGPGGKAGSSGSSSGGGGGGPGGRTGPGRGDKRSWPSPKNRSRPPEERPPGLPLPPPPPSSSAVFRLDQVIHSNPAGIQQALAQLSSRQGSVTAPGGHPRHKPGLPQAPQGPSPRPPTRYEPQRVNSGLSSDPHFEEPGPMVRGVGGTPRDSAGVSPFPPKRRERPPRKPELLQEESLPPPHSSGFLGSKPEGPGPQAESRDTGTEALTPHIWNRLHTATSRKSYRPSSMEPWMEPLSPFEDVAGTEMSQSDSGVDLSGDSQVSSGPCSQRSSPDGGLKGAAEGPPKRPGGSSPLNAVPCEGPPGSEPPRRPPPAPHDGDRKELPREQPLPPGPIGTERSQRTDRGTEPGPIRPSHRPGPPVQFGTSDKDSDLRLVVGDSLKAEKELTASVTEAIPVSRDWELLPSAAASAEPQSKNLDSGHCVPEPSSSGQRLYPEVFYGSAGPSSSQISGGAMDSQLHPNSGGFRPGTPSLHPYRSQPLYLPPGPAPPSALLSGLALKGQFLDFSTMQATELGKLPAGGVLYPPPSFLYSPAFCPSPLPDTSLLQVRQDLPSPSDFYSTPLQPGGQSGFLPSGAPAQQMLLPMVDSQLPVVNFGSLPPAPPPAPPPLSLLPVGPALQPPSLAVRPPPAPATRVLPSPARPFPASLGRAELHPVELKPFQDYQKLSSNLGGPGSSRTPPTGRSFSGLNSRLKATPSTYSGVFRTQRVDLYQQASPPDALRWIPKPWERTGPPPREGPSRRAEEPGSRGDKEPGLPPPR

Consider “MASVAVDPQPSVVTRVVNLPLVSSTYDLMSSAYLSTKDQYPYLKSVCEMAENGVKTITSVAMTSALPIIQKLEPQIAVANTYACKGLDRIEERLPILNQPSTQIVANAKGAVTGAKDAVTTTVTGAKDSVASTITGVMDKTKGAVTGSVEKTKSVVSGSINTVLGSRMMQLVSSGVENALTKSELLVEQYLPLTEEELEKEAKKVEGFDLVQKPSYYVRLGSLSTKLHSRAYQQALSRVKEAKQKSQQTISQLHSTVHLIEFARKNVYSANQKIQDAQDKLYLSWVEWKRSIGYDDTDESHCAEHIESRTLAIARNLTQQLQTTCHTLLSNIQGVPQNIQDQAKHMGVMAGDIYSVFRNAASFKEVSDSLLTSSKGQLQKMKESLDDVMDYLVNNTPLNWLVGPFYPQLTESQNAQDQGAEMDKSSQETQRSEHKTH [PLIN2]”, for which the “solubility change mitosis (log2)” value with HeLa Kyoto [1] was 0.0233. Also, the thermal stability score in the data set on HeLa Kyoto [2] (setting [5]) came to 0.285; with HeLa Kyoto [2] (cell cycle stage: mitosis) it was 0.347. In addition, the melting temperature in the data set on HeLa Kyoto [3] (cell cycle stage: G1/S) turned out to be 53.2 °C; in the data set on HeLa Kyoto [3] (cell cycle stage: mitosis), 53.3 °C. Also, in the data set on HeLa Kyoto [4], the “solubility in G1/S (log2)” value was determined as 0.307.

As to PRRC2A, the “solubility change mitosis (log2)” value with HeLa Kyoto [1] is 0.0463. The values for the thermal stability score in the data set on HeLa Kyoto [2] (setting [5]) and with HeLa Kyoto [2] (cell cycle stage: mitosis) were 0.422 and 0.00992, respectively. Besides, the melting temperature in the data set on HeLa Kyoto [3] (cell cycle stage: G1/S) was determined as 53.7 °C; in the data set with HeLa Kyoto [3] (cell cycle stage: mitosis), 55.1 °C. Moreover, in the data set on HeLa Kyoto [4], the “solubility in G1/S (log2)” value was -0.105.

As for “MAGSYPEGAPAILADKRQQFGSRFLSDPARVFHHNAWDNVEWSEEQAAAAERKVQENSIQRVCQEKQVDYEINAHKYWNDFYKIHENGFFKDRHWLFTEFPELAPSQNQNHLKDWFLENKSEVCECRNNEDGPGLIMEEQHKCSSKSLEHKTQTPPVEENVTQKISDLEICADEFPGSSATYRILEVGCGVGNTVFPILQTNNDPGLFVYCCDFSSTAIELVQTNSEYDPSRCFAFVHDLCDEEKSYPVPKGSLDIIILIFVLSAVVPDKMQKAINRLSRLLKPGGMVLLRDYGRYDMAQLRFKKGQCLSGNFYVRGDGTRVYFFTQEELDTLFTTAGLEKVQNLVDRRLQVNRGKQLTMYRVWIQCKYCKPLLSSTS [METTL2B]”, the “solubility change mitosis (log2)” value with HeLa Kyoto [1] was -0.231. Also, the thermal stability score with HeLa Kyoto [2] (setting [5]) was -0.391; with HeLa Kyoto [2] (cell cycle stage: mitosis), 1.29. Besides, the melting temperature turned out to be 48.6 °C with HeLa Kyoto [3] (cell cycle stage: G1/S) and 48.9 °C in the data set with HeLa Kyoto [3] (cell cycle stage: mitosis). Besides, the “solubility in G1/S (log2)” value in the data set with HeLa Kyoto [4] came to 0.19.

For the substance “MANEVIKCKAAVAWEAGKPLSIEEIEVAPPKAHEVRIKIIATAVCHTDAYTLSGADPEGCFPVILGHEGAGIVESVGEGVTKLKAGDTVIPLYIPQCGECKFCLNPKTNLCQKIRVTQGKGLMPDGTSRFTCKGKTILHYMGTSTFSEYTVVADISVAKIDPLAPLDKVCLLGCGISTGYGAAVNTAKLEPGSVCAVFGLGGVGLAVIMGCKVAGASRIIGVDINKDKFARAKEFGATECINPQDFSKPIQEVLIEMTDGGVDYSFECIGNVKVMRAALEACHKGWGVSVVVGVAASGEEIATRPFQLVTGRTWKGTAFGGWKSVESVPKLVSEYMSKKIKVDEFVTHNLSFDEINKAFELMHSGKSIRTVVKI [ADH5]”, in the data set on HeLa Kyoto [1], the “solubility change mitosis (log2)” value was -0.171. For the same substance, the thermal stability score was -4.67 in the data set with HeLa Kyoto [2] (setting [5]) and -2.86 with HeLa Kyoto [2] (cell cycle stage: mitosis). Further, the melting temperature worked out at 56.8 °C in the data set on HeLa Kyoto [3] (cell cycle stage: G1/S) and 56.7 °C with HeLa Kyoto [3] (cell cycle stage: mitosis). For the same substance, the “solubility in G1/S (log2)” value in the data set on HeLa Kyoto [4] turned out to be 0.147.

Turning to “MGNCHTVGPNEALVVSGGCCGSDYKQYVFGGWAWAWWCISDTQRISLEIMTLQPRCEDVETAEGVALTVTGVAQVKIMTEKELLAVACEQFLGKNVQDIKNVVLQTLEGHLRSILGTLTVEQIYQDRDQFAKLVREVAAPDVGRMGIEILSFTIKDVYDKVDYLSSLGKTQTAVVQRDADIGVAEAERDAGIREAECKKEMLDVKFMADTKIADSKRAFELQKSAFSEEVNIKTAEAQLAYELQGAREQQKIRQEEIEIEVVQRKKQIAVEAQEILRTDKELIATVRRPAEAEAHRIQQIAEGEKVKQVLLAQAEAEKIRKIGEAEAAVIEAMGKAEAERMKLKAEAYQKYGDAAKMALVLEALPQIAAKIAAPLTKVDEIVVLSGDNSKVTSEVNRLLAELPASVHALTGVDLSKIPLIKKATGVQV [FLOT2]”, the “solubility change mitosis (log2)” value in the data set on HeLa Kyoto [1] was found to be 0.153. In addition, the thermal stability score with HeLa Kyoto [2] (setting [5]) is -2.8; in the data set with HeLa Kyoto [2] (cell cycle stage: mitosis), -0.0606. Besides, the melting temperature is 56.8 °C with HeLa Kyoto [3] (cell cycle stage: G1/S) and 55.8 °C in the data set on HeLa Kyoto [3] (cell cycle stage: mitosis). Moreover, the “solubility in G1/S (log2)” value with HeLa Kyoto [4] is -1.04.

“MRLRRLALFPGVALLLAAARLAAASDVLELTDDNFESRISDTGSAGLMLVEFFAPWCGHCKRLAPEYEAAATRLKGIVPLAKVDCTANTNTCNKYGVSGYPTLKIFRDGEEAGAYDGPRTADGIVSHLKKQAGPASVPLRTEEEFKKFISDKDASIVGFFDDSFSEAHSEFLKAASNLRDNYRFAHTNVESLVNEYDDNGEGIILFRPSHLTNKFEDKTVAYTEQKMTSGKIKKFIQENIFGICPHMTEDNKDLIQGKDLLIAYYDVDYEKNAKGSNYWRNRVMMVAKKFLDAGHKLNFAVASRKTFSHELSDFGLESTAGEIPVVAIRTAKGEKFVMQEEFSRDGKALERFLQDYFDGNLKRYLKSEPIPESNDGPVKVVVAENFDEIVNNENKDVLIEFYAPWCGHCKNLEPKYKELGEKLSKDPNIVIAKMDATANDVPSPYEVRGFPTIYFSPANKKLNPKKYEGGRELSDFISYLQREATNPPVIQEEKPKKKKKAQEDL [PDIA3]”: the “solubility change mitosis (log2)” value with HeLa Kyoto [1] worked out at 0.000907. The thermal stability score was found to be 4.82 with HeLa Kyoto [2] (setting [5]) and 4.63 in the data set with HeLa Kyoto [2] (cell cycle stage: mitosis). Also, the values for the melting temperature with HeLa Kyoto [3] (cell cycle stage: G1/S) and in the data set on HeLa Kyoto [3] (cell cycle stage: mitosis) were 53.3 °C and 53.7 °C, respectively. Moreover, the “solubility in G1/S (log2)” value in the data set on HeLa Kyoto [4] is 0.299.
